T1: FcγRIIa α subunit ECD-6His-GST fusion protein (UniProt P12318 34-217)
T1 construct: not shown: glutathione S transferase (GST)
T1 sequence: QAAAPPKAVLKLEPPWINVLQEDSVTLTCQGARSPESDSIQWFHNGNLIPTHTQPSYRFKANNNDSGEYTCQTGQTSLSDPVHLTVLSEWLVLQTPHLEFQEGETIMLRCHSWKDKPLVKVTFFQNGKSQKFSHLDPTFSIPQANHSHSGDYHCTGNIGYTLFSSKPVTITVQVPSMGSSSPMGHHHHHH

T2: FcγRIIb α subunit ECD-6His-GST fusion protein (UniProt P31994 43-217)
T2 construct: not shown: glutathione S transferase (GST)
T2 sequence: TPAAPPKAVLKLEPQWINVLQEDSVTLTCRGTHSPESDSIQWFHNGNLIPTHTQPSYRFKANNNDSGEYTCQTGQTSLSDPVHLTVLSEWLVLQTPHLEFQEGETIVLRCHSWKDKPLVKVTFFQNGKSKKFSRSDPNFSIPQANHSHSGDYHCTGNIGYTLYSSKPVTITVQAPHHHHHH


Legend:
[1] = biological target: T3, FcγRI α subunit-GST fusion (UniProt P12314 16-292); experiment: ELISA, monomeric IgG on coated FcγRI α subunit-GST
T3 construct: not shown: glutathione S transferase (GST)

[2] = biological target: T1, FcγRIIa α subunit ECD-6His-GST fusion …; experiment: ELISA, E27:chimeric IgE:VEGF immune complex on coated receptor ECD-6His-GST
[3] = biological target: T2, FcγRIIb α subunit ECD-6His-GST fusion …; experiment: as above
[4] = biological target: T4, FcγRIIIa α subunit ECD-6His-GST fusion protein (UniProt P08637 17-208); experiment: as above
T4 construct: not shown: glutathione S transferase (GST)
T4 sequence (P08637 other isoform, or with tags, fused parts or gaps, form in doubt): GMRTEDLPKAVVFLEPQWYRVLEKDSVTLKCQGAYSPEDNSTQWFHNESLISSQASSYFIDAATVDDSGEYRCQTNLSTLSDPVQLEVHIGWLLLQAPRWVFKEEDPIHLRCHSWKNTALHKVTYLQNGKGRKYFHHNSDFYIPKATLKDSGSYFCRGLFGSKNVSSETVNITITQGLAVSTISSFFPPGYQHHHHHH

T3 sequence (P12314 other isoform, or with tags, fused parts or gaps, form in doubt): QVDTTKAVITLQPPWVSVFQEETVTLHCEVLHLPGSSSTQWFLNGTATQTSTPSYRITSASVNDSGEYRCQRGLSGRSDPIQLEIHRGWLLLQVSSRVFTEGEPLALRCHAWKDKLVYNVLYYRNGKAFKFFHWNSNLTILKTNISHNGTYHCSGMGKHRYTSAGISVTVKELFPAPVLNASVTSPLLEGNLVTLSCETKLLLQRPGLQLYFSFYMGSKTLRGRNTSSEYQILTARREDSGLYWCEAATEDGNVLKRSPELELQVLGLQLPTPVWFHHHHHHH

Row | Binder | binding as percentage of the wild type [1] [%] | binding as percentage of the wild type [2] [%] | binding as percentage of the wild type [3] [%] | binding as percentage of the wild type [4] [%]
1 | E27 anti-IgE antibody, wild type (humanized IgG1) (antibody, In the FcγRII and FcγRIII ELISAs it stood as an immune complex E27:chimeric IgE:VEGF (1:1:2); also called wt; recombinant anti-IgE E27) heavy: not shown light: DIQLTQSPSSLSASVGDRVTITCRASKPVDGEGDSYMNWYQQKPGKAPKLLIYAASYLESGVPSRFSGSGSGTDFTLTISSLQPEDFATYYCQQSHEDPYTFGQGTKVEIKRTVAAPSVFIFPPSDEQLKSGTASVVCLLNNFYPREAKVQWKVDNALQSGNSQESVTEQDSKDSTYSLSSTLTLSKADYEKHKVYACEVTHQGLSSPVTKSFNRGEC | 100 | 100 | 100 | 100
2 | E27 anti-IgE antibody mutant K320A (antibody, also called K320A (E27 background)) heavy: not shown light: DIQLTQSPSSLSASVGDRVTITCRASKPVDGEGDSYMNWYQQKPGKAPKLLIYAASYLESGVPSRFSGSGSGTDFTLTISSLQPEDFATYYCQQSHEDPYTFGQGTKVEIKRTVAAPSVFIFPPSDEQLKSGTASVVCLLNNFYPREAKVQWKVDNALQSGNSQESVTEQDSKDSTYSLSSTLTLSKADYEKHKVYACEVTHQGLSSPVTKSFNRGEC | 102 | 94 | 83 | 72
3 | E27 anti-IgE antibody mutant P329A (antibody, also called P329A (E27 background)) heavy: not shown light: DIQLTQSPSSLSASVGDRVTITCRASKPVDGEGDSYMNWYQQKPGKAPKLLIYAASYLESGVPSRFSGSGSGTDFTLTISSLQPEDFATYYCQQSHEDPYTFGQGTKVEIKRTVAAPSVFIFPPSDEQLKSGTASVVCLLNNFYPREAKVQWKVDNALQSGNSQESVTEQDSKDSTYSLSSTLTLSKADYEKHKVYACEVTHQGLSSPVTKSFNRGEC | 104 | 111 | 96 | 85
4 | E27 anti-IgE antibody mutant E318A (antibody, also called E318A (E27 background)) heavy: not shown light: DIQLTQSPSSLSASVGDRVTITCRASKPVDGEGDSYMNWYQQKPGKAPKLLIYAASYLESGVPSRFSGSGSGTDFTLTISSLQPEDFATYYCQQSHEDPYTFGQGTKVEIKRTVAAPSVFIFPPSDEQLKSGTASVVCLLNNFYPREAKVQWKVDNALQSGNSQESVTEQDSKDSTYSLSSTLTLSKADYEKHKVYACEVTHQGLSSPVTKSFNRGEC | 93 | 113 | 106 | 104
5 | E27 anti-IgE antibody mutant P331A (antibody, also called P331A (E27 background)) heavy: not shown light: DIQLTQSPSSLSASVGDRVTITCRASKPVDGEGDSYMNWYQQKPGKAPKLLIYAASYLESGVPSRFSGSGSGTDFTLTISSLQPEDFATYYCQQSHEDPYTFGQGTKVEIKRTVAAPSVFIFPPSDEQLKSGTASVVCLLNNFYPREAKVQWKVDNALQSGNSQESVTEQDSKDSTYSLSSTLTLSKADYEKHKVYACEVTHQGLSSPVTKSFNRGEC | 74 | 86 | 58 | 73
6 | E27 anti-IgE antibody mutant K322A (antibody, also called K322A (E27 background)) heavy: not shown light: DIQLTQSPSSLSASVGDRVTITCRASKPVDGEGDSYMNWYQQKPGKAPKLLIYAASYLESGVPSRFSGSGSGTDFTLTISSLQPEDFATYYCQQSHEDPYTFGQGTKVEIKRTVAAPSVFIFPPSDEQLKSGTASVVCLLNNFYPREAKVQWKVDNALQSGNSQESVTEQDSKDSTYSLSSTLTLSKADYEKHKVYACEVTHQGLSSPVTKSFNRGEC | 90 | 109 | 101 | 90

Reference: patent US20030158389A1 (Genentech, published 2003)
